Source: patent publication US20240254229A1 (Molecular Partners, published 2024)
Values joined by “and” are separate entries in the source; they are usually repeats but may differ in a detail not shown here. Equal entries are not always repeated.

Tests used:
[1] = molecular target: T1, hCD123 (recombinant, construct not stated) (human, UniProt P26951 19-305, limits assumed); assay: switchSENSE, hCD33 and hCD123 co-immobilised 2:1; panel headed CD123
T1 construct: also called CD123 (Ligand 2)
T1 sequence (looked up): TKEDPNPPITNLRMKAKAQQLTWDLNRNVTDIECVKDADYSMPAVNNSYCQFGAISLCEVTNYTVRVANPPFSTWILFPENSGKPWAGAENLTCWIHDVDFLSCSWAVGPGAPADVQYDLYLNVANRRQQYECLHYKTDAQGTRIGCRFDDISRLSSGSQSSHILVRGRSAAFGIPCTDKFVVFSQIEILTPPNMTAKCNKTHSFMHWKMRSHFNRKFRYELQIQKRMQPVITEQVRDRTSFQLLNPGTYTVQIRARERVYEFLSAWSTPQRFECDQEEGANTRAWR
Description: (§1) The designed ankyrin repeat proteins: DARPin® protein #20, DARPin® protein #21, DARPin® protein #22, DARPin® protein #27, DARPin® protein #40 and DARPin® protein #41 were tested in a concentration of 0.16 and 64 nM (in a buffer PE140 containing 10 mM Na2HPO4/NaH2PO4, 140 mM NaCl, 0.05% Tween20, 50 μM EDTA, 50 μM EGTA) for binding against two ligands hCD33 and hCD123, which both were immobilized simultaneously to DNA nanolevers, on the surface, at a pre-defined ratio (2:1, CD33:CD123) and 10% density (100:50) on an ADP-48-1-0 chip, where 100% density 1000 receptors/μm2 (preincubated R1-B48-CD123 and G1-A48-CD33 (100 nM) diluted in cNL-48 (dark)). Briefly the following steps were performed: [0724] Conjugation. Amine coupling of the two ligands (CD33 and CD123) to the DNA nanolever (A48, B48, respectively) and purification of the conjugates using the proFIRE® solution (Dynamic Biosensors GmbH) at 25° C. [0725] Evaluation of all the combined affinity and avidity of all different proteins to both ligands attached on the surface of an ADP chip using a DRX+ instrument (dynamic BIOSENSORS). [0726] Statistical analysis (repeatability from 2 to 5 times) including regeneration of the chip surface every concentration analyzed and long dissociation times and data were fitted using a bi-exponential global fit.

[2] = molecular target: T2, hCD33 (recombinant, construct not stated) (human, UniProt P20138 18-259, limits assumed); assay: switchSENSE, CD33 and CD123 on one chip; monophasic; CD33-only control, monophasic
T2 construct: also called CD33 (Ligand 1)
T2 sequence (P20138 18-259 limits assumed): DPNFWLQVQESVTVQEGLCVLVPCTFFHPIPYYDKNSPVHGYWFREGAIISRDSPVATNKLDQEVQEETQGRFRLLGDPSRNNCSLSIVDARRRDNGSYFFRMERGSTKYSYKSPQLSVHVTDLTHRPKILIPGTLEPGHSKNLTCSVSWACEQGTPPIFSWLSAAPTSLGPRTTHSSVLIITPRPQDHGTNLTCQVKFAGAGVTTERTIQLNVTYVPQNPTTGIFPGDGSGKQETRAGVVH

[3] = molecular target: T2, hCD33 (recombinant, construct not …); assay: switchSENSE, hCD33 and hCD123 co-immobilised 2:1; panel headed CD33, column KD1; KD2 printed N.A.
Description: as §1

[4] = molecular target: T2, hCD33 (recombinant, construct not …); assay: switchSENSE, hCD33 and hCD123 co-immobilised 2:1; panel headed CD33
Description: as §1

[5] = molecular target: T1, hCD123 (recombinant, construct not …); assay: switchSENSE, CD33 and CD123 on one chip; monophasic; CD123-only control, monophasic
[6] = molecular target: T1, hCD123 (recombinant, construct not …); assay: switchSENSE, hCD33 and hCD123 co-immobilised 2:1; panel headed CD123, column KD1; KD2 printed N.A.
Description: as §1

[7] = molecular target: T2, hCD33 (recombinant, construct not …); assay: switchSENSE, CD33 and CD123 on one chip
Description: as §1

[8] = molecular target: T1, hCD123 (recombinant, construct not …); assay: switchSENSE, CD33 and CD123 on one chip
Description: as §1

[9] = molecular target: T2, hCD33 (recombinant, construct not …); assay: switchSENSE; KD,1 (affinity); KD,1 (affinity), CD33
Description: as §1

[10] = molecular target: T2, hCD33 (recombinant, construct not …); assay: switchSENSE, CD33 and CD123 on one chip; kon to CD33
Description: as §1

[11] = molecular target: T1, hCD123 (recombinant, construct not …); assay: switchSENSE; KD,1 (affinity); KD,1 (affinity), CD123
Description: as §1

[12] = molecular target: T1, hCD123 (recombinant, construct not …); assay: switchSENSE, CD33 and CD123 on one chip; kon to CD123
Description: as §1

[13] = molecular target: T3, hCD33 and hCD123 immobilized simultaneously on one switchSENSE chip (ratio 2:1, CD33:CD123) (human, UniProt P20138 18-259; P26951 19-305, limits assumed); assay: switchSENSE, CD33 and CD123 on one chip; slow phase (avidity)
T3 construct: Not a complex: two separate ligands on one surface; used for avidity values and for off-rates; also called both ligands; both targets attached to the surface of the chip
T3 sequence (P20138 18-259 limits assumed, one chain of several): as the sequence (P20138 18-259 limits assumed) above
Description: as §1

[14] = molecular target: T3, hCD33 and hCD123 immobilized …; assay: switchSENSE, CD33 and CD123 on one chip; fast phase (affinity)
Description: as §1

[15] = molecular target: T3, hCD33 and hCD123 immobilized …; assay: switchSENSE, CD33 and CD123 on one chip; slow phase (avidity); slow phase (avidity)
[16] = molecular target: T3, hCD33 and hCD123 immobilized …; assay: switchSENSE, CD33 and CD123 on one chip; fast phase (affinity); fast phase (affinity)
Description: as §1

[17] = molecular target: T2, hCD33 (recombinant, construct not …); assay: switchSENSE, hCD33 and hCD123 co-immobilised 2:1; panel headed CD33, column KD1 (affinity)
Description: as §1

[18] = molecular target: T1, hCD123 (recombinant, construct not …); assay: switchSENSE, hCD33 and hCD123 co-immobilised 2:1; panel headed CD123, column KD1 (affinity)
Description: as §1

[19] = molecular target: T3, hCD33 and hCD123 immobilized …; assay: switchSENSE, hCD33 and hCD123 co-immobilised 2:1; panel headed CD33, column KD2 (avidity, simultaneous binding of CD33 and CD123 per paragraph 694)
Description: as §1

[20] = molecular target: T3, hCD33 and hCD123 immobilized …; assay: switchSENSE, hCD33 and hCD123 co-immobilised 2:1; panel headed CD123, column KD2 (avidity, simultaneous binding of CD33 and CD123 per paragraph 694)
Description: as §1

[21] = molecular target: T4, biotinylated extracellular domain of human CD123 (SEQ ID NO: 88), Fc and Avi tagged (human, UniProt P26951 19-303, biotinylated with BirA-GST (Avi tag)); assay: ribosome display selection, crude extract HTRF
T4 construct: also called hCD123
T4 sequence: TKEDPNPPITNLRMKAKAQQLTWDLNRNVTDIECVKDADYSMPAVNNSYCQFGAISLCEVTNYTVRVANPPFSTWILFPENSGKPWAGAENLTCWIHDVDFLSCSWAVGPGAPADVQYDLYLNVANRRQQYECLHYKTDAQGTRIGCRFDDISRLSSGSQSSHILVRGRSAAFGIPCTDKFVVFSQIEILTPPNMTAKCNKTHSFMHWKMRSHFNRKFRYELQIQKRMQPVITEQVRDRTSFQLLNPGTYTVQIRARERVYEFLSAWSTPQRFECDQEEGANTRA

B1: DARPin® protein #40 (designed binder)
chain: DLGKKLLEAARAGQDDEVRELLKAGADVNAKDKDGYTPLHLAAREGHLEIVEVLLKAGADVNAKDKDGYTPLHLAAREGHLEIVEVLLKAGADVNAQDKSGKTPADLAADAGHEDIAEVLQKAAGSPTPTPTTPTPTPTTPTPTPTGSDLGVKLLLAASRGQLDEVRILLKAGADVNAKDIDEGYTPLHIAAYYGHLEIVEVLLKAGADVNAKDRYGKTPLHLAAISGHLEIVEVLLKAGADVNAQDDKGDTPADLAADYGHQDIAEVLQKAAGSPTPTPTTPTPTPTTPTPTPTGSDLGQKLLEAAWAGQDDEVRELLKAGADVNAKNSRGWTPLHTAAQTGHLEIFEVLLKAGADVNAKDDKGVTPLHLAAALGHLEIVEVLLKAGADVNAQDSWGTTPADLAAKYGHEDIAEVLQKAA
notes: also called Ni2C-αCD33-αCD3
binding result [1]: no binding | koff [2]: 0.01 s⁻¹ | Kd [3]: 7.1 nM

B2: DARPin® protein #41 (designed binder)
chain: DLGKKLLEAALEGQLDEVRELLKAGADVNAKDQEGYTPLHLAAALGHLEIVEVLLKAGADVNAKDSIGRTPLHLAAYKGHLEIVEVLLKAGADVNAQDLLGETPADLAAEQGHQDIAEVLQKAAGSPTPTPTTPTPTPTTPTPTPTGSDLGKKLLEAARAGQDDEVRELLKAGADVNAKDKDGYTPLHLAAREGHLEIVEVLLKAGADVNAKDKDGYTPLHLAAREGHLEIVEVLLKAGADVNAQDKSGKTPADLAADAGHEDIAEVLQKAAGSPTPTPTTPTPTPTTPTPTPTGSDLGQKLLEAAWAGQDDEVRELLKAGADVNAKNSRGWTPLHTAAQTGHLEIFEVLLKAGADVNAKDDKGVTPLHLAAALGHLEIVEVLLKAGADVNAQDSWGTTPADLAAKYGHEDIAEVLQKAA
notes: also called αCD123-Ni2C-αCD3
binding result [4]: no binding | koff [5]: 0.06 s⁻¹ | Kd [6]: 4.2 nM

B3: DARPin® protein #20 (designed binder)
chain: DLGKKLLEAARAGQDDEVRILMANGADVNALDWLGHTPLHLAAYEGHLEIVEVLLKNGADVNAIDDNNGFTPLHLAAIDGHLEIVEVLLKNGADVNAQDKFGKTAFDISIDNGNEDLAEILQKAAGSPTPTPTTPTPTPTTPTPTPTGSDLGDKLLLAATSGQDDEVRILLAAGADVNAKDYDGDTPLHLAADEGHLEIVEVLLKAGADVNAKDYSGSTPLHAAAAYGHLEIVEVLLKAGADVNAQDVFGYTPADLAAYVGHEDIAEVLQKAAGSPTPTPTTPTPTPTTPTPTPTGSDLGQKLLEAAWAGQDDEVRILLAAGADVNAKNSRGWTPLHTAAQTGHLEIFEVLLKAGADVNAKNDKRVTPLHLAAALGHLEIVEVLLKAGADVNARDSWGTTPADLAAKYGHGDIAEVLQKLA
notes: CD123-CD33-CD3; also called αCD123-αCD33-αCD3_1
kon [7]: ~1e+06 M⁻¹ s⁻¹ | kon [8]: ~1e+07 M⁻¹ s⁻¹ | Kd [9]: ~17.6 nM | kon [10]: 1.3e+06 M⁻¹ s⁻¹ | Kd [11]: ~4.9 nM | kon [12]: 7e+06 M⁻¹ s⁻¹ | koff [13]: ~0.001 s⁻¹ and 0.001 s⁻¹ | koff [14]: ~0.01 s⁻¹ and 0.02 s⁻¹ | koff [15]: 0.0015 s⁻¹ | koff [16]: 0.03 s⁻¹ | Kd [17]: 18 nM | Kd [18]: 4.9 nM | Kd [19]: 0.7 nM | Kd [20]: 0.29 nM

B4: DARPin® protein #35 (designed binder)
chain: DLGKKLLEAALEGQDDEVRELLKAGADVNAKDQEGYTPLHLAAALGHLEIVEVLLKAGADVNAKDSIGRTPLHLAAYKGHLEIVEVLLKAGADVNAQDLLGETPADLAAEQGHEDIAEVLQKAA
notes: CD123-specific domain; screened as crude extract
binding result [21]: binds
